In patent US20150376269A1 (Regeneron, published 2015):

Key:
[1] = molecular target: T1, serum resistance-associated protein (SRA) from Trypanosoma brucei rhodesiense, recombinant SRA (SEQ ID NO: … (Trypanosoma brucei rhodesiense, UniProt O96637 31-274)); assay: SPR, mAb captured, pH 4.5, 25C; competitor biotin-apoL1 peptide
T1 construct: also called SRA protein
T1 sequence: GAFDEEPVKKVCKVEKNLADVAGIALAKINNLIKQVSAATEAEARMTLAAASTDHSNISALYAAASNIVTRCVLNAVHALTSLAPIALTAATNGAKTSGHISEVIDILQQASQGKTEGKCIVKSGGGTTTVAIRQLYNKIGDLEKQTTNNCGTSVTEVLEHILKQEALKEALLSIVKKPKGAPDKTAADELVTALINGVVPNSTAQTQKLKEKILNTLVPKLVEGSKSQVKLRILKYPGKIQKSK

[2] = molecular target: T1, serum resistance-associated protein …; assay: SPR, mAb captured, 25C, pH 7.4
Method: (§1) Equilibrium dissociation constants (KD) values for SRA binding to selected purified anti-SRA monoclonal antibodies were determined using a real-time surface plasmon resonance biosensor assay on a Biacore T200 instrument. […] SRA binding to the captured monoclonal antibodies was monitored for 4 min while the dissociation of mAb bound SRA was monitored for 7 min. Two different assays formats were adopted to characterize kinetics of SRA binding—(i) regular kinetics and (ii) pH4.5 chase. Regular kinetics experiments were performed using pH7.4 buffer as the running buffer and both the association and dissociation was performed in pH7.4. For the chase format, association and dissociation were performed in pH7.4 buffer and pH4.5 buffer respectively.
(§2) Kinetic association (kₐ) and dissociation (kd) rate constants were determined by processing and fitting the data to a 1:1 binding model using Scrubber 2.0c curve fitting software. Only the dissociation rate (kd) was calculated for the pH4.5 chase experiment. Binding dissociation equilibrium constants (KD) and dissociative half-lives (t½) were calculated from the kinetic rate constants as:

[3] = molecular target: T1, serum resistance-associated protein …; assay: SPR, mAb captured, 50 nM SRA, pH 4.5, 25C
SRA.mmh [4] = molecular target: T2, SRA.mmh; assay: Octet, mAb-2 at 50 ug/mL on captured SRA.mmh after negative control α-PRLR H1H6800P as mAb-1 (row 32 (-))
T2 construct: also called SRA.mmh (CHO)
T2 antigen: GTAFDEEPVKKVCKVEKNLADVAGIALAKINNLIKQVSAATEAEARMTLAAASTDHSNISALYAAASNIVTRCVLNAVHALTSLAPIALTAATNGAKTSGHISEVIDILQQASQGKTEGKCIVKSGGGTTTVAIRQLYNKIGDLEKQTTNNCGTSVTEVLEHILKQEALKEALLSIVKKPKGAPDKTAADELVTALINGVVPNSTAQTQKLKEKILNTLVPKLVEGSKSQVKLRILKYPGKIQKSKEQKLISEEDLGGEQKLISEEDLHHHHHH

[5] = molecular target: T1, serum resistance-associated protein …; assay: SPR, mAb captured, 25C, assoc. pH 7.4, dissoc. pH 4.5
Method: as §1, §2

[6] = molecular target: T1, serum resistance-associated protein …; assay: SPR, 25C, t1/2 pH 7.4 over pH 4.5
Method: as §1, §2

SRA.mmh [7] = molecular target: T2, SRA.mmh; assay: Octet, SRA.mmh captured on anti-Penta-His tips, mAb-1 at 50 ug/mL for 5 min, 25 C, pH 7.4
[8] = molecular target: T1, serum resistance-associated protein …; assay: SPR, mAb captured, pH 4.5, 25C; competitor biotin-mutant apoL1 peptide

Binder	50 nM SRA + 5 uM apoL1 peptide binding (RU) [1] [RU]	% Blocking, apoL1 peptide [1] [%]	Kd [2] [nM]	kon [2] [M⁻¹ s⁻¹]	t ½ [2] [h]	50 nM SRA binding (RU) [3] [RU]	Binding of mAb-2 to SRA Pre-complexed with mAb-1 (SRA.mmh [4])	t ½ [5] [h]	t ½ ratio pH 7.4/pH 4.5 [6]	50 ug/mL mAb 1 Bound (nm) (SRA.mmh [7])	50 nM SRA + 5 uM mutant apoL1 peptide binding (RU) [8] [RU]	% Blocking, Mutant apoL1 peptide [8] [%]
H1H10064P (antibody, V domains shown, Fully human antibody with human IgG1 Fc (prefix H1H)) VH: QVQLVQSGAEVKKPGSSVKVSCKASGGSFSSNVFSWVRQAPGQGLEWMGGIIPIFGSANYAQKFQGRVTITTDESTTTAYMELSSLRSEDTAVYYCAIGGTGPSGYNWNYGAFYIWGQGTMVTVSS VL: DIQMTQSPSSLSASVGDRVTITCRASQGIRNDLGWYQQKPGIAPKRLIYAASSLQSGVPSRFSGSGSGTEFTLTISSLQPEDFATYYCLQHNSYPYTFGQGTKLEIK	-11	100	0.546	1.6e+06	0.217	76	1.22	0.025	9	1.25	67	11
H2aM10200N (antibody, V domains shown, Hybridoma-derived chimeric antibody, human variable domains and mouse constant domains (mouse Fc, prefix H2aM); also called H2M10200N) VH: QVQLVQSGAEVKKPGSSVKVSCKASGGTFSSYAISWVRQAPGQGLEWMGGIIPFFGTATYAQKFQGRVTITTDESTRTVYMELSSLRYEDTAVYYCARWYSGYGGDFDYWGQGTLVTVSS VL: AIQMTQSPSSLSASVGDRVTITCRASQGIRNDLGWFQQKPGKAPKLLIYAASSLQSGVPSRFSGSGSGTDFTLSISSLQPEDFATYYCLQDYSYPRTFGQGTKVEIK	-2	100	0.0996	844000	2.28	159	1.28	0.0333	77	1.59	150	5
H1H10031P (antibody, V domains shown, Fully human antibody with human IgG1 Fc (prefix H1H)) VH: EVQLVESGGNVVRPGGSLRLSCSGSGFAFENYGMSWVRQGPGKGLEWVSNINWNGGSLNYVDSVKGRFTISRDNAKNSLYLQMNSLRAEDTALYYCARVIVYGMDVWGQGTTVTVSS VL: DIQMTQSPSSLSASVGDRVTITCRASQGIRNGLGWFQQKPGKAPKRLIYATSSLQSGVPSRFSGSGSGTEFTLTISSLQPEDFATYYCLQSNSYPWTFGQGTKVEIK	45	25	≤ 0.095	526000	≥ 3.85	60	1.58	3.32	≥ 1	1.59	57	6
H1H10045P (antibody, V domains shown, Fully human antibody with human IgG1 Fc (prefix H1H)) VH: not shown VL: DIQMTQSPSFVSASVGDRVTISCRASQDIHTWLAWYQQKPGKAPNLLIYAASGLHSRAPSRFSGSGSGTDFTLTISSLQPEDFATYYCQKADRFPFTFGPGTKVDIK	52	36	≤ 0.108	459000	≥ 3.85	82	1.4	≥ 3.85	–	1.72	77	6
H1H10056P (antibody, V domains shown, Fully human antibody with human IgG1 Fc (prefix H1H)) VH: QVQLVESGGGVVQPGRSLRLSCSASGFTFSLYGMHWIRQAPGKGLEWVAVISYDGSNTYYGDSVKGRFTISRDNSKNTLYLQMNSLRTEDTAIYYCAKVYNWNYLFDYWGQGTLVTVSS VL: EIVLTQSPDTLSLSPGERATLSCRASQNVNNNFLAWYQQKPGQAPRLLIYGASSRATDIPERFSGSGSGTDFTLTISRLEPEDFAVYYCLHYVNSRTFGQGTKVEIK	-4	100	≤ 0.134	372000	≥ 3.85	72	1.28	0.117	≥ 31	1.3	67	7
H1H10026P (antibody, V domains shown, Fully human antibody with human IgG1 Fc (prefix H1H)) VH: QVQLVESGGGVVQPGRSLRLSCEASGFTFSIYGMHWVRQAPGKGLEWVAVISYDGTNRYYADSVKGRFTISRDNSKNTLYLQMNSLRAEDTAVYYCAKVNIWNFLFDYWGQGTLVTVSS VL: EIVLTQSPGTLSLSPGERATLSCRASQSVSGNYLAWYQQKPGQAPRLLIYGPSSRATGIPDRFSGSGSGTDFTLTISRLEPEDFAVYYCQQYGTSLTFGGGTKVEIK	84	19	≤ 0.0814	614000	≥ 3.85	104	1.64	1.75	≥ 2	1.45	106	-2
H2aM10201N (antibody, V domains shown, Chimeric antibody, human variable domains and mouse constant domains (mouse Fc, prefix H2aM); also called H2M10201N) VH: QVQLLESGGGVVQPGKSLRLSCVASGSIFSIYGMNWVRQAPGKGLEWVASVSSDGSAKFYADSVKGRFTISRDNSNDTLFLQMTSLRAEDTAVYYCAKTLWNYLFDSWGQGTLVTVSS VL: ENVLTQSPDTLSLSPGERATLSCRASQSITSNYLAWYQQKPGQTPRLLISFTSRRATGIPDRFSGSGSGTVFTLTISRLEPEDFAVYYCQQYGTSLTFGGGAKVEIR	42	61	0.245	642000	1.23	109	1.31	0.0117	109	1.27	108	0
